According to PMC9519379 (Cell Reports Medicine, 2022):

Key:
[1] = target: SARS-CoV-2 Spike Trimer (B.1.1.529/Omicron) (SARS-CoV-2) (UniProt P0DTC2); test: single-molecule force spectroscopy
[2] = target: SARS-CoV-2 Spike protein Trimer (Wild type) (SARS-CoV-2) (UniProt P0DTC2); test: single-molecule force spectroscopy

With “H84T-banana lectin (H84T-BanLec) (from UniProt Q8L5H4 1-141) (designed binder)” the IC50 [1] was 2.6 nM, the IC50 [2] was 5.2 nM and the koff [2] was 0.046 s⁻¹. The kon [2] was 99800 M⁻¹ s⁻¹.
